The record followed here is US20200306373A1 (Hoffmann-La Roche, published 2020).

Experiment [1] deals with T1, murine FAP (mFAP) (murine, UniProt P97321 1-761).
T1 construct: Expressed on 3T3-mFAP / NIH/3T3-moFAP cl.34 cells; also called mouse FAP; moFAP
Briefly: flow cytometry on 3T3-mFAP cells. On the procedure:
(§1) The staining was fixed for 20 min at 4° C. in the dark, using 75 μl of 1% PFA in FACS buffer per well. Fluorescence was analyzed by FACS using a FACS Fortessa (Software FACS Diva). Binding curves were obtained using GraphPadPrism6 and are shown in FIGS. 6A-6C and 7A-7B, respectively.
A general note: Flow cytometry measures light scatter and fluorescence of single cells or particles in a stream.

The target in experiment [2] is T2, murine ICOS (murine, UniProt Q9WVS0 21-200).
T2 construct: in the splenocyte assays the endogenous protein on murine T cells; also called mICOS
T2 sequence: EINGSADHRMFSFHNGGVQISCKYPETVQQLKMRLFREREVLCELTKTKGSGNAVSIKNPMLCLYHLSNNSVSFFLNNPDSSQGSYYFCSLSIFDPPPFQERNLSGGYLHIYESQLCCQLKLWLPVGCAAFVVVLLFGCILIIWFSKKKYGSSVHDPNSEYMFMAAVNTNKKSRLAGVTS
Briefly: flow cytometry on CHO-K1 transfectants expressing murine ICOS. Here is the method:
as §1

Experiment [3] deals with T1, murine FAP (mFAP). Briefly: flow cytometry on 3T3-mFAP cells stably overexpressing murine FAP, median fluorescence intensity. Here is the method: as §1
For experiment [4], the target named is T2, murine ICOS. Kind of experiment: binding to CHO K1 cells expressing murine ICOS.
The target of experiment [5] is T3, dimeric murine ICOS antigen Fc(kih) fusion molecule (murine, biotinylated at the C-terminal Avi tag (BirA co-expression)).
T3 construct: also called murine ICOS proteins; biotinylated ICOS-Fc fusion protein
Kind of experiment: SPR, ProteOn XPR36, 25 C, one-shot kinetics, Fab dilution series over murine ICOS protein, 1:1 Langmuir. Here is the method:
For one-shot kinetics measurements, dilution series of purified monoclonal antibody Fab fragments were injected simultaneously along separate channels 1-5. Buffer (PBST) was injected along the sixth channel to provide an “in-line” blank for referencing. Association rate constants (kₒₙ) and dissociation rate constants (koff) were calculated using a simple one-to-one Langmuir binding model in ProteOn Manager v3.1 software by simultaneously fitting the association and dissociation sensorgrams. The equilibrium dissociation constant (KD) was calculated as the ratio koff/kₒₙ (Table 18).
Background: SPR reads the build-up and loss of mass on a sensor chip optically.

T1 sequence (P97321 whole entry): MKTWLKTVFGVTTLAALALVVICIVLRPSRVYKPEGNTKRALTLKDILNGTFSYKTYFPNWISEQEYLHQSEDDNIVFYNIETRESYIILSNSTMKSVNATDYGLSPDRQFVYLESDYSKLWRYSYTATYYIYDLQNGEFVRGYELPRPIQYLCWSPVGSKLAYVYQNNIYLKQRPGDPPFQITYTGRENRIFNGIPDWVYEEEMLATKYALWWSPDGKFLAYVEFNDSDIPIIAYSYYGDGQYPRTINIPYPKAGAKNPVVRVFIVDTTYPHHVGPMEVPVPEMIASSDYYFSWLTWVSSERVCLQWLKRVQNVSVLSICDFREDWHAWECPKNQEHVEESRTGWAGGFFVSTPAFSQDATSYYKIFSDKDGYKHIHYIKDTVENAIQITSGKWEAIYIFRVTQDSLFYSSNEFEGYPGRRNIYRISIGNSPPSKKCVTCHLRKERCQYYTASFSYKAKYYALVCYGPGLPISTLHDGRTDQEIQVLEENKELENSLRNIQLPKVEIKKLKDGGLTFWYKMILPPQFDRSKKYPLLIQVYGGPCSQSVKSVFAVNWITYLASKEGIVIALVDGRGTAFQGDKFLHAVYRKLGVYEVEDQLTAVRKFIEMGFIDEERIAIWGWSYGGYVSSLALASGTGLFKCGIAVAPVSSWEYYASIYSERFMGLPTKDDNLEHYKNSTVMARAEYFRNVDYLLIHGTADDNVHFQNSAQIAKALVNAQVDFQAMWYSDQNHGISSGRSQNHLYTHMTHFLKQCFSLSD

B1: FAP-targeted mICOSL, mIgG1 DAPG, bivalent murine ICOSL (Gly47-Lys279), monovalent FAP (28H1) c-terminal fused of the heavy chain C region (Fc fusion)
chain 1: ETEVGAMVGSNVVLSCIDPHRRHFNLSGLYVYWQIENPEVSVTYYLPYKSPGINVDSSYKNRGHLSLDSMKQGNFSLYLKNVTPQDTQEFTCRVFMNTATELVKILEEVVRLRVAANFSTPVISTSDSSNPGQERTYTCMSKNGYPEPNLYWINTTDNSLIDTALQNNTVYLNKLGLYDVISTLRLPWTSRGDVLCCVENVALHQNITSISQAESFTGNNTKNPQETHNNELKGSPGSSSSSGSADGCKPCICTVPEVSSVFIFPPKPKDVLTITLTPKVTCVVVAISKDDPEVQFSWFVDDVEVHTAQTKPREEQINSTFRSVSELPIMHQDWLNGKEFKCRVNSAAFGAPIEKTISKTKGRPKAPQVYTIPPPKKQMAKDKVSLTCMITNFFPEDITVEWQWNGQPAENYKNTQPIMKTDGSYFVYSKLNVQKSNWEAGNTFTCSVLHEGLHNHHTEKSLSHSPGGGGGSGGGGSGGGGSGGGGSEVQLLESGGGLVQPGGSLRLSCAASGFTFSSHAMSWVRQAPGKGLEWVSAIWASGEQYYADSVKGRFTISRDNSKNTLYLQMNSLRAEDTAVYYCAKGWLGNFDYWGQGTLVTVSS
chain 2: ETEVGAMVGSNVVLSCIDPHRRHFNLSGLYVYWQIENPEVSVTYYLPYKSPGINVDSSYKNRGHLSLDSMKQGNFSLYLKNVTPQDTQEFTCRVFMNTATELVKILEEVVRLRVAANFSTPVISTSDSSNPGQERTYTCMSKNGYPEPNLYWINTTDNSLIDTALQNNTVYLNKLGLYDVISTLRLPWTSRGDVLCCVENVALHQNITSISQAESFTGNNTKNPQETHNNELKGSPGSSSSSGSAGSPGSSSSSGSADGCKPCICTVPEVSSVFIFPPKPKDVLTITLTPKVTCVVVAISKDDPEVQFSWFVDDVEVHTAQTKPREEQINSTFRSVSELPIMHQDWLNGKEFKCRVNSAAFGAPIEKTISKTKGRPKAPQVYTIPPPKEQMAKDKVSLTCMITNFFPEDITVEWQWNGQPAENYDNTQPIMDTDGSYFVYSDLNVQKSNWEAGNTFTCSVLHEGLHNHHTEKSLSHSPGGGGGSGGGGSGGGGSGGGGSEIVLTQSPGTLSLSPGERATLSCRASQSVSRSYLAWYQQKPGQAPRLLIIGASTRATGIPDRFSGSGSGTDFTLTISRLEPEDFAVYYCQQGQVIPPTFGQGTKVEIK
notes: also called FAP-mICOS-L; FAP-mICOSL
By EC50 is commonly meant the midpoint of the concentration-response curve. A lower EC50 goes with a more potent agent. Broadly, the EC50 (read off the curve) is the concentration that produces a half-maximal response. Low readings indicate higher potency in that assay, high ones lower potency in that assay. Turning to B1, the half-maximal effective concentration (EC50) with murine FAP (mFAP) [1] was 71.8 nM; with murine ICOS [2] it was 28.1 nM. Moreover, in the experiment with murine FAP (mFAP) [3], the “EC50 (read off the curve)” value is about 30 nM.

B2: Fab fragment 16E09 (Fab, V domains shown)
VH: EVQLVQSGAEVKKPGESLKISCKGSGYSFTSYWIGWVRQMPGKGLEWMGIIYPGDSDTRYSPSFQGQVTISADKSISTAYLQWSSLKASDTAMYYCARSSGPYGLYLDYWGQGTLVTVSS
VL: not shown
notes: Phage-derived Fab expressed in E. coli TG1 and purified on His GraviTrap columns; also called 16E09 anti-ICOS antibody as Fab fragment; purified Fab fragment 16E09
The term Kd denotes the free concentration of one partner at which half of the binding sites on the other are occupied at equilibrium, for simple one-to-one binding. Lower therefore signals a tighter complex. On to B2, for which, in the experiment with murine ICOS [4], the binding result was “binds”. The Kd in experiment [5] came to 293 nM.
